# Measured values from patent US20100081612A1 (GENERAL HOSPITAL, published 2010).
# Where no end group is shown, it is not given here. [ ]: non-standard residue; d: D form. Gly(1-amidinopiperidin-4-yl) = N=C(N)N1CCC([C@H](N)C(=O)O)CC1; Cha = N[C@@H](CC1CCCCC1)C(=O)O; Nle = CCCC[C@H](N)C(=O)O
# T1: wild-type human PTHR (human, UniProt Q03431 27-593)
# T1 construct: whole, on cells; also called PTHR-WT; intact PTHR
# T1 sequence (looked up): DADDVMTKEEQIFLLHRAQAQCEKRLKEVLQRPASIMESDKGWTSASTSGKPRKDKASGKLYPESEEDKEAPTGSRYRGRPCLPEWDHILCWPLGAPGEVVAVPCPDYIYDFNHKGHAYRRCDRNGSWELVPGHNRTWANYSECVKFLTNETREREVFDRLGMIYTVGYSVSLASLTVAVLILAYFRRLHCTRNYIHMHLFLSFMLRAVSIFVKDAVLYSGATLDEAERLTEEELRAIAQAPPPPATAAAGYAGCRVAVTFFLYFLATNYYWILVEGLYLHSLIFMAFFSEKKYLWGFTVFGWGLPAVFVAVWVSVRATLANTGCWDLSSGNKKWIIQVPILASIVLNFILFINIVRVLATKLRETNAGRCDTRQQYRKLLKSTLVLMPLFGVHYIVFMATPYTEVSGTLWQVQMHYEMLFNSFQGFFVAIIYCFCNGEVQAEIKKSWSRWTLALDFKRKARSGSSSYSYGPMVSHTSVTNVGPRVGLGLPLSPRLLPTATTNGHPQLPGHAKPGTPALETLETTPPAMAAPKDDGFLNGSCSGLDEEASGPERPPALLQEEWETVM
# B1: [Ala^1,Arg^19]hPTH(1-31)NH2 Ser^17→Cha (peptide)
# peptide: AVSEIQLMHNLGKHLN[Cha]MRRVEWLRKKLQDV-NH2
# modifications: N-terminus assumed
# SMILES: CC[C@H](C)[C@H](NC(=O)[C@H](CCC(=O)O)NC(=O)[C@H](CO)NC(=O)[C@@H](NC(=O)[C@H](C)N)C(C)C)C(=O)N[C@@H](CCC(N)=O)C(=O)N[C@@H](CC(C)C)C(=O)N[C@@H](CCSC)C(=O)N[C@@H](Cc1c[nH]cn1)C(=O)N[C@@H](CC(N)=O)C(=O)N[C@@H](CC(C)C)C(=O)NCC(=O)N[C@@H](CCCCN)C(=O)N[C@@H](Cc1c[nH]cn1)C(=O)N[C@@H](CC(C)C)C(=O)N[C@@H](CC(N)=O)C(=O)N[C@@H](CC1CCCCC1)C(=O)N[C@@H](CCSC)C(=O)N[C@@H](CCCNC(=N)N)C(=O)N[C@@H](CCCNC(=N)N)C(=O)N[C@H](C(=O)N[C@@H](CCC(=O)O)C(=O)N[C@@H](Cc1c[nH]c2ccccc12)C(=O)N[C@@H](CC(C)C)C(=O)N[C@@H](CCCNC(=N)N)C(=O)N[C@@H](CCCCN)C(=O)N[C@@H](CCCCN)C(=O)N[C@@H](CC(C)C)C(=O)N[C@@H](CCC(N)=O)C(=O)N[C@@H](CC(=O)O)C(=O)N[C@H](C(N)=O)C(C)C)C(C)C
# B2: PTH(1-31)NH2 Arg^20→Nle (peptide)
# peptide: SVSEIQLMHNLGKHLNSME[Nle]VEWLRKKLQDV-NH2
# modifications: N-terminus assumed
# SMILES: CCCC[C@H](NC(=O)[C@H](CCC(=O)O)NC(=O)[C@H](CCSC)NC(=O)[C@H](CO)NC(=O)[C@H](CC(N)=O)NC(=O)[C@H](CC(C)C)NC(=O)[C@H](Cc1c[nH]cn1)NC(=O)[C@H](CCCCN)NC(=O)CNC(=O)[C@H](CC(C)C)NC(=O)[C@H](CC(N)=O)NC(=O)[C@H](Cc1c[nH]cn1)NC(=O)[C@H](CCSC)NC(=O)[C@H](CC(C)C)NC(=O)[C@H](CCC(N)=O)NC(=O)[C@@H](NC(=O)[C@H](CCC(=O)O)NC(=O)[C@H](CO)NC(=O)[C@@H](NC(=O)[C@@H](N)CO)C(C)C)[C@@H](C)CC)C(=O)N[C@H](C(=O)N[C@@H](CCC(=O)O)C(=O)N[C@@H](Cc1c[nH]c2ccccc12)C(=O)N[C@@H](CC(C)C)C(=O)N[C@@H](CCCNC(=N)N)C(=O)N[C@@H](CCCCN)C(=O)N[C@@H](CCCCN)C(=O)N[C@@H](CC(C)C)C(=O)N[C@@H](CCC(N)=O)C(=O)N[C@@H](CC(=O)O)C(=O)N[C@H](C(N)=O)C(C)C)C(C)C
# B3: PTH(1-31)NH2 Arg^20→PipGly (peptide)
# peptide: SVSEIQLMHNLGKHLNSME[Gly(1-amidinopiperidin-4-yl)]VEWLRKKLQDV-NH2
# modifications: N-terminus assumed
# SMILES: CC[C@H](C)[C@H](NC(=O)[C@H](CCC(=O)O)NC(=O)[C@H](CO)NC(=O)[C@@H](NC(=O)[C@@H](N)CO)C(C)C)C(=O)N[C@@H](CCC(N)=O)C(=O)N[C@@H](CC(C)C)C(=O)N[C@@H](CCSC)C(=O)N[C@@H](Cc1c[nH]cn1)C(=O)N[C@@H](CC(N)=O)C(=O)N[C@@H](CC(C)C)C(=O)NCC(=O)N[C@@H](CCCCN)C(=O)N[C@@H](Cc1c[nH]cn1)C(=O)N[C@@H](CC(C)C)C(=O)N[C@@H](CC(N)=O)C(=O)N[C@@H](CO)C(=O)N[C@@H](CCSC)C(=O)N[C@@H](CCC(=O)O)C(=O)N[C@H](C(=O)N[C@H](C(=O)N[C@@H](CCC(=O)O)C(=O)N[C@@H](Cc1c[nH]c2ccccc12)C(=O)N[C@@H](CC(C)C)C(=O)N[C@@H](CCCNC(=N)N)C(=O)N[C@@H](CCCCN)C(=O)N[C@@H](CCCCN)C(=O)N[C@@H](CC(C)C)C(=O)N[C@@H](CCC(N)=O)C(=O)N[C@@H](CC(=O)O)C(=O)N[C@H](C(N)=O)C(C)C)C(C)C)C1CCN(C(=N)N)CC1
# Biological target: T1, wild-type human PTHR
# Assay: competition binding, HKRK-B7 cells, 125I-PTH(1-34) tracer
Binder,"fold change in binding affinity vs [Ala^1,Arg^19]PTH(1-31)NH2",fold enhancement in binding affinity vs PTH(1-31)NH2,"fold reduction in binding affinity vs [Ala^1,Arg^19]PTH(1-31)NH2",fold reduction in binding affinity vs PTH(1-31)NH2
B1,≤ 6 fold,–,–,–
SVSEIQLMHNLGKHLNSMRRVEWLRKKLQDV-NH2 [PTH(1-31)NH2 Glu^19→Arg],–,≤ 2 fold,–,–
"AVSEIQLMHNLGKHLNSMRREEWLRKKLQDV-NH2 [[Ala^1,Arg^19]hPTH(1-31)NH2 Val^21→Glu]",–,–,12 fold,–
B2,–,–,–,~200 fold
B3,–,–,–,~200 fold
SVSEIQLMHNLGKHLNSMEXVEWLRKKLQDV (citrulline (Cit) at 20; C-terminal amide) [PTH(1-31)NH2 Arg^20→Cit],–,–,–,~200 fold

# Biological target: T1, wild-type human PTHR
# Assay: as above
# Remark: another data set of the same source
# Protocol: (§1) Receptor binding—Binding to the wild-type human PTHR in intact HKRK-B7 cells and ROS 17/2.8 cells was assessed using ¹²⁵I-PTH(1-34) as a tracer radioligand, as described (Shimizu, M., (2001) Endocrinology 142:3068-3074). In brief, the cells in 24-well plates (about 500,000 cells per well) were incubated in binding buffer containing radioligand (about 100,000 cpm per well) with or without unlabeled peptide ligand (3×10⁻⁹ to 1×10⁻⁵ M) for four hours at 15° C. The binding mixture was then removed by aspiration, the cells were rinsed three times with binding buffer, lysed in 1 M NaOH, and the entire lysate was counted for gamma-irradiation in a gamma counter. Binding to PTHR-delNt in COS-7 cell membranes was assessed in 96-well, vacuum filtration plates (Multiscreen-Durapore HV, […], Millipore Corp., Millford, Mass.) using ¹²⁵I-[Aib^{1,3},M]PTH(1-15)NH₂ as a tracer radioligand, as described (Dean, T., (2006) Mol Endocrinol 20:931-942). In brief, cell membranes (20 μg/well) were incubated in membrane binding buffer containing radioligand (30,000 cpm/well) with or without unlabeled peptide ligand (3×10⁻⁹ to 1×10⁻⁵ M) for 90 minutes at 21° C. The plates were then subject to rapid vacuum filtration, the filters were washed once with buffer, detached from the plate and counted for gamma-irradiation in a gamma counter. Non-specific binding was defined as the binding observed in the presence of 1×10⁻⁶ M PTH(1-31)NH₂ for HKRK-B7 and ROS 17/2.8 cells, and 1×10⁻⁶ M [Aib^{1,3},M]PTH(1-15)NH₂ for PTHR-delNt. Specifically bound radioactivity was calculated as a percentage of the radioactivity specifically bound in the absence of competing ligand.
# Alanine-Scan of the PTH(17-31) domain—Each residue in the (17-31) region of PTH(1-31)NH₂ was individually replaced with alanine and the effects of the substitutions on binding to the intact human PTHR stably expressed in HKRK-B7 cells was assessed. Competition binding studies were performed using whole cells and ¹²⁵I-PTH(1-34) (¹²⁵I-[Nle^{8,21},Tyr³⁴]ratPTH(1-34)NH₂) as a tracer radioligand.
row,Binder,IC50
1,SVSEIQLMHNLGKHLNSMEQVEWLRKKLQDV-NH2 [PTH(1-31)NH2 Arg^20→Gln],> 10 µM
2,"SVSEIQLMHNLGKHLNSMARVAWLRKKLQDV-NH2 [PTH(1-31)NH2 Glu^19,22→Ala,Ala]",0.049 µM
3,SVSEIQLMHNLGKHLNSMRRVEWLRKKLQDV-NH2 [PTH(1-31)NH2 Glu^19→Arg],0.042 µM
4,SVSEIQLMHNLGKHLNSMEEVEWLRKKLQDV-NH2 [PTH(1-31)NH2 Arg^20→Glu],> 10 µM
5,"SVSEIQLMHNLGKHLNSMRRVAWLRKKLQDV-NH2 [PTH(1-31)NH2 Glu^19,22→Arg,Ala]",0.054 µM
6,SVSEIQLMHNLGKHLNSMEKVEWLRKKLQDV-NH2 [PTH(1-31)NH2 Arg^20→Lys],> 10 µM
7,B2,15.4 µM
8,B3,14.1 µM
9,SVSEIQLMHNLGKHLNSMEXVEWLRKKLQDV (citrulline (Cit) at 20; C-terminal amide) [PTH(1-31)NH2 Arg^20→Cit],11.9 µM

# Biological target: T1, wild-type human PTHR
# Assay: as above
# Remark: another data set of the same source
# Protocol: as §1
# Cyclohexylalanine and glutamate substitutions were introduced into [Ala¹,Arg¹⁹]hPTH(1-31)NH₂. The helical residue values were calculated from [θ]₂₂₂, the mean-residue elipticities observed in the CD spectra at 222 nm. Competition binding studies were performed in intact HKRK-B7 cells stably transfected with the hPTHR using ¹²⁵I-[Nle^{8,21},Tyr³⁴]rPTH(1-34)NH ₂ tracer radioligand, and in membranes prepared from COS-7 cells transiently transfected with hPTHR-delNt and a negative-dominant Gαs using ¹²⁵I-[Aib^{1,3},Nle⁸,Gln¹⁰,Har¹¹,Ala¹²,Trp¹⁴,Tyr¹⁵]rPTH(1-15)NH₂ tracer radioligand. Binding values (nM) are means (+/−s.e.m.) of data from the number of experiments indicated (n).
row,Binder,IC50
1,B1,112 nM
2,"AVSEIQLMHNLGKHLNSMRRVEWLEKKLQDV-NH2 [[Ala^1,Arg^19]hPTH(1-31)NH2 Arg^25→Glu]",189 nM
3,"AVSEIQLMHNLGKHLNSMRREEWLRKKLQDV-NH2 [[Ala^1,Arg^19]hPTH(1-31)NH2 Val^21→Glu]",447 nM
4,"AVSEIQLMHNLGKHLNSMRRVEWLREKLQDV-NH2 [[Ala^1,Arg^19]hPTH(1-31)NH2 Lys^26→Glu]",60 nM
5,"AVSEIQLMHNLGKHLNSMRRVEWLRKELQDV-NH2 [[Ala^1,Arg^19]hPTH(1-31)NH2 Lys^27→Glu]",156 nM

# Biological target: PTHR-delNt (human) (UniProt Q03431)
# Assay: competition binding, COS-7 membranes, 125I-[Aib1,3,M]PTH(1-15) tracer
Binder,IC50,"fold change in binding affinity vs [Ala^1,Arg^19]PTH(1-31)NH2",fold difference of IC50 from PTH(1-31)NH2,"fold reduction in binding affinity vs [Ala^1,Arg^19]PTH(1-31)NH2",fold reduction in binding affinity vs PTH(1-31)NH2
B1,179 nM,< 3 fold,–,–,–
SVSEIQLMHNLGKHLNSMEQVEWLRKKLQDV-NH2 [PTH(1-31)NH2 Arg^20→Gln],10300 nM,–,< 4 fold,–,–
"AVSEIQLMHNLGKHLNSMRRVEWLEKKLQDV-NH2 [[Ala^1,Arg^19]hPTH(1-31)NH2 Arg^25→Glu]",1630 nM,–,–,4 fold,–
"SVSEIQLMHNLGKHLNSMARVAWLRKKLQDV-NH2 [PTH(1-31)NH2 Glu^19,22→Ala,Ala]",619 nM,–,–,–,–
SVSEIQLMHNLGKHLNSMRRVEWLRKKLQDV-NH2 [PTH(1-31)NH2 Glu^19→Arg],1230 nM,–,–,–,–
SVSEIQLMHNLGKHLNSMEEVEWLRKKLQDV-NH2 [PTH(1-31)NH2 Arg^20→Glu],14700 nM,–,–,–,4 fold
"AVSEIQLMHNLGKHLNSMRREEWLRKKLQDV-NH2 [[Ala^1,Arg^19]hPTH(1-31)NH2 Val^21→Glu]",1620 nM,–,–,4 fold,–
"SVSEIQLMHNLGKHLNSMRRVAWLRKKLQDV-NH2 [PTH(1-31)NH2 Glu^19,22→Arg,Ala]",360 nM,–,–,–,–
"AVSEIQLMHNLGKHLNSMRRVEWLREKLQDV-NH2 [[Ala^1,Arg^19]hPTH(1-31)NH2 Lys^26→Glu]",832 nM,–,–,–,–
SVSEIQLMHNLGKHLNSMEKVEWLRKKLQDV-NH2 [PTH(1-31)NH2 Arg^20→Lys],7100 nM,–,< 4 fold,–,–
"AVSEIQLMHNLGKHLNSMRRVEWLRKELQDV-NH2 [[Ala^1,Arg^19]hPTH(1-31)NH2 Lys^27→Glu]",1270 nM,–,–,–,–
B2,10700 nM,–,< 4 fold,–,–
B3,6600 nM,–,< 4 fold,–,–
SVSEIQLMHNLGKHLNSMEXVEWLRKKLQDV (citrulline (Cit) at 20; C-terminal amide) [PTH(1-31)NH2 Arg^20→Cit],10600 nM,–,< 4 fold,–,–
